# Assay results: article PMC12742849 (Protein & Cell, 2025)
# Experiments:
# [1] = target: ALFA-tagged RibD (RibD-ALFA), F. novicida (Francisella novicida); test: pull-down
# [2] = target: GST-tagged Francisella RibD (Francisella tularensis, UniProt A0Q460); details: substrate generated in situ from GTP by E. coli RibA; with and without PEP
# Sequence of GST-tagged Francisella RibD (A0Q460 1-355): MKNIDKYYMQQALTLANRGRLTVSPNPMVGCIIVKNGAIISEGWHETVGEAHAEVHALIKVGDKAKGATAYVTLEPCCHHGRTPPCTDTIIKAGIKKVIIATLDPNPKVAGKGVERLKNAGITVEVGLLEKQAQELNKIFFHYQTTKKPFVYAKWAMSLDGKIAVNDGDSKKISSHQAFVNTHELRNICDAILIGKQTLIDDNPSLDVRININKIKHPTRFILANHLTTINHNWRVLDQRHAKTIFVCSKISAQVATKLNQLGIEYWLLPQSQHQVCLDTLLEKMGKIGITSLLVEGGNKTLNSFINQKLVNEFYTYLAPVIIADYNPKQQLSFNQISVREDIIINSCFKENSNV
Molecule,stoichiometry N [1],"fluorescence of the RibD reaction product (ex 408 nm, em 485 nm) [2]"
"FLAG-tagged enolase (enolase-FLAG), F. novicida (enzyme)",1,–
"Nc1nc(N[C@@H]2O[C@H](COP(=O)(O)O)[C@@H](O)[C@H]2O)c(N)c(=O)[nH]1 [2,5-diamino-6-ribosyl-amino-4(3H) pyrimidinedione 5′-phosphate]",–,"Results showed similar activity for both, with PEP having the same effect on each"
